Experiment [1] concerns cucurbitadienol synthase activity. Description: Cucurbitadienol synthase activities of fusion proteins in yeast strain with oxidosqualene boost, LCMS. It counts as cell-based, S. cerevisiae. The conditions noted are these: average % activities over the average activities of the parent enzyme (Cucumis melo cucurbitadienol synthase). As for the experimental part:
For analyzing cucurbitadienol, the first LCMS method included the use of C4 2.1×100 mm column, gradient 1 to 95% B for 6 minutes, and at flow rate of 0.55 ml/min; and the second LCMS method included the use of Waters Acquity UPLC Protein BEH C4 2.1×100 […], 1.7 μm, with guard, 62 to 67% B for 2 min, 100% B for 1 min, and at flow rate of 0.9 ml/min and ESI source positive single ion monitoring of 427 and 409.
The gene encoding for a cucurbitadienol synthase form Cucumis melo was codon optimized (SEQ ID: 907) and used as a starting point for generating a library of modifications. Modifications were introduced through standard molecular biology techniques consisting of fusion peptides at the N-terminus (i.e., 5′) or C-terminus (i.e., 3′) end of the enzyme. Plasmids libraries of modified cucurbitadienol synthase genes were transformed into a yeast strain with oxidosqualene boost. Enzyme activities were measured by ratios of peak heights or areas of 409 and 427 positive mass fragments at the expected retention times for cucurbitadienol vs. an internal standard using LCMS method 2 described above. Enzyme performance were scored as average % activities over the average activities of the parent enzyme (n=8). Step 1 sequences of the enzymes and the sequences that encode the enzyme can be found in SEQ ID NOs: 951-1012. Step 1 sequence also include the fusions SS2c-G10, SS2e-A7b, SS2d-G11. […]

In another experiment the test system is mogrol precursors. In words: Mogrol production by EPHs tested in a yeast strain producing mogrol precursors. It counts as cell-based. The text has this: DNA was obtained through gene synthesis either through Genescript, IDT, or Genewiz. For some of the cucurbitadienol synthases, cDNA or genomic DNA was obtained through 10-60 day old seedlings followed by PCR amplification using specific and degenerate primers. DNA was cloned through standard molecular biology techniques or through yeast gap repair cloning (Joska et al., 2014) into one of the following overexpression vectors: pESC-Ura, pESC-His, or pESC-LEU. Gene expression was regulated by one of the following promoters; Gall, Gal10, Tef1, or GDS. Yeast transformation was performed using Zymo Yeast Transformation Kit II. Yeast strains were grown in standard media (YPD or SC) containing the appropriate selection with 2% glucose or 2% galactose for induction of heterologous genes. Yeast strains were grown in shake flask or 96 well plates at 30° ° C., 140-250 rpm. When indicated, lanosterol synthase inhibitor, Ro 48-8071 (Cayman Chemicals) was added (50 ug/ml). […]

B1: SEQ ID NO 1024: fusion protein having cucurbitadienol synthase activity (protein, listed as Citrullus lanatus)
chain: MWTILLGLATLAIAYYIHWVNKWKDSKFNGVLPPGTMGLPLIGETIQLSRPSDSLDVHPFIQSKVKRYGPIFKTCLAGRPVVVSTDAEFNHYIMLQEGRAVEMWYLDTLSKFFGLDTEWLKALGLIHKYIRSITLNHFGAESLRERFLPRIEESARETLHYWSTQPSVEVKESAAAMVFRTSIVKMFSEDSSKLLTGGLTKKFTGLLGGFLTLPLNLPGTTYNKCIKDMKEIQKKLKDILEERLAKGTGNDEDFLGQAIKDKESQQFISEEFIIQLLFSISFASFESISTSLTLILKFLADHPQVVKELEAEHEAIQKARADPDGPITWEEYKSMTFTLNVISETLRLGSVTPALLRKTTKEIQIKGYTIPEGWTVMLVTASRHRDPEVYKDPDTFNPWRWKELDSITVQKNFMPFGGGLRHCAGAEYSKVYLCTFLHILFTKYRWTKLKGGKIARAHILRFEDGLHVKFTPKE
For the molecule B1, the “Activity (as compared to the parent)” value in experiment [1] is 166%.

B2: SEQ ID NO. 1072 and 1073: epoxide hydrolase (EPH); coding DNA and protein sequence (protein)
chain: MDAIQHTTIKTNGIKMHIASVGNGPVVLLLHGFPELWYSWRHQLLYLSSVGYRAIAPDLRGYGDTDSPESHTSYTALHIVGDLVGALDELGIEKVFLVGHDWGAIIAWYFCLFRPERIKALVNLSVQFFPRNPAISFIQRFRAAYGDDFYMCRFQVPGEAEADFACIDTAQLFKTTLSNRSTKAPCLPKEYGFRAIPPPENLPSWLTEEDINYYAAKFKETGFTGALNYYRAFDLTWELTAPWTGVQIQVPVKFIVGDSDLTYHFKGAKEYIHEGGFKRDVPLLEEVVIVENAGHFVHEEKPHEINTHIHDFIKKF
modifications: Cucumis melo
Consider B2, for which the “ability to produce mogrol” value in the experiment on mogrol precursors is “showed the ability to produce mogrol”.

Source of the values: patent US12286661B2, “Methods for making high intensity sweeteners” (Firmenich Incorporated, priority 2018, dated 2025).
